The target in the assay is cynomolgus CD40 overexpressed on CHO cells (cynomolgus) [GFP: P42212]. The assay can be described thus: flow cytometry on CHO cells expressing cynomolgus CD40.

CP870893-IgG2 (antibody) had an EC50 of 7.28 nM.

The record behind these values is patent EP4538288A1.
